Measurements reported in the RNAGym collection of RNA variant scans (doi:10.7554/elife.90254).

B1: LINE1-mini (parent)
chain: GGCAGAGCUCAACACAGCGUGGCAAAGUGGCUGUGGCUAGACUGCC

Variants of: B1
Experiment: self-cleavage, relative activity (ratio to wild type); higher = more cleavage; in vitro, sequencing; the parent is a self-cleaving ribozyme

| Variant | self-cleavage |
| --- | --- |
| GGGAAAGCUCAACACAGCGUGGCAAAGUGGCUGUGGCUAGACUGCC [C3G G5A] | 0.68 |
| GGCAGAGCACAACACAGCGUGGCAAAGUGGCUGUGGCUAUACUGCC [U9A G40U] | 0.1 |
| GGCAGAGCUCAACACAGCGUGGCAAAGUGGCUGUGGCUGGGCUGCC [A39G A41G] | 0.01 |
| GACAGAGCUCAACACAGCGUGGCGAAGUGGCUGUGGCUAGACUGCC [G2A A24G] | 1.04 |
| GGCAGAGCUCAACACAGCGUGGCCAAGUGGCUGUGCCUAGACUGCC [A24C G36C] | 0.1 |
| GGUAGAGCUCAACACAGCGUGGCAAAGUGGCUAUGGCUAGACUGCC [C3U G33A] | 0.13 |
| GGGAGAGGUCAACACAGCGUGGCAAAGUGGCUGUGGCUAGACUGCC [C3G C8G] | 0.08 |
| GGCAGAGCUCAACACAGCGUGGCGAAGUGGCUGGGGCUAGACUGCC [A24G U34G] | 0.14 |
| GGCUGAGCUCAACACAGCGUGGCAAAGUGGCUGUGGCUUGACUGCC [A4U A39U] | 0.11 |
| GGCAGAGCUCAAUACAGCGUGGCAAGGUGGCUGUGGCUAGACUGCC [C13U A26G] | 0.14 |
| GGCAGAGCUCAACACAGCGUGGCAAAGUUGCUGUGACUAGACUGCC [G29U G36A] | 0.17 |
| GGCAGAGCUCAACACAGCGUGGCAAAGUGGCUGUUGUUAGACUGCC [G35U C37U] | 0.06 |
| GGCAGAGGUCAACACAGCGUGGCAAAGUGGCUGUGGCUAGACAGCC [C8G U43A] | 0.03 |
| GGCAGAGCGCAACACAGCGUGGCAAAGUGGCGGUGGCUAGACUGCC [U9G U32G] | 0.05 |
| GGCAGCGCUCAACACAGCGUGGCAAAGUGGCUGUGGCUAAACUGCC [A6C G40A] | 0.11 |
| GGCAGAGCUCAACACAGCGUGGCAAAUUGUCUGUGGCUAGACUGCC [G27U G30U] | 1.53 |
| GGCAGAGCUCAACACAGCGAGGCAAAGUGGCUGUGGAUAGACUGCC [U20A C37A] | 0.05 |
| GGCAGAGGUCAACUCAGCGUGGCAAAGUGGCUGUGGCUAGACUGCC [C8G A14U] | 0.08 |
| GGCAGAGCUCAACACAGCGUGGUAAAGUGGCUGUGGCUAGAUUGCC [C23U C42U] | 0.91 |

| Variant | self-cleavage |
| --- | --- |
| GUCAGAGCUCAACACAGCGUGGCAAAGUGGCUGUGGAUAGACUGCC [G2U C37A] | 0.03 |
| GGCAGAGCUUAACACAGCGUGGCAAAGUGGAUGUGGCUAGACUGCC [C10U C31A] | 0.13 |
| GGAAGAGCUCAACACAGCGUGGCCAAGUGGCUGUGGCUAGACUGCC [C3A A24C] | 0.27 |
| GGCAGAGCUCAACACAGCGUGGCAUAGUGGCUGUGGCUAGACUUCC [A25U G44U] | 0.4 |
| GGCAGAGCACAACACAGCGUGGCAAAGUGGCUGUGGCUAGACUGAC [U9A C45A] | 0.31 |
| GGCAGAGCUCAACGCAGCGUGGGAAAGUGGCUGUGGCUAGACUGCC [A14G C23G] | 0.45 |
| GGCAGGGCUCAACACAGCGUGGCAAAGUGGCUGUGGCUAGACUGCG [A6G C46G] | 0.08 |
| GGCAGUGCUCAACACAGCGUGGCAAAGUGGCUGAGGCUAGACUGCC [A6U U34A] | 0.06 |
| GGCAGAGCUCAACACAGCGUGUCAAAGUGGCUGUUGCUAGACUGCC [G22U G35U] | 0.39 |
| GGCAGAACUCAACACAGCGUGGCAAAGUGGCUGUGGCUAGACAGCC [G7A U43A] | 0.15 |
| GGCAGAGCUCAACACAGCGUUGAAAAGUGGCUGUGGCUAGACUGCC [G21U C23A] | 1.24 |
| GGCAGAGCUCAACACAGCGUGGCAAAGUGGCUGUGGAUAGACUGCU [C37A C46U] | 0.04 |
| GGCAGAGCUCAACACAGUAUGGCAAAGUGGCUGUGGCUAGACUGCC [C18U G19A] | 1.13 |
| GACAGAGCUCAACACAGCGUGGCAAAGAGGCUGUGGCUAGACUGCC [G2A U28A] | 0.32 |
| GGCAGAGCUCAACAUAGCGUGGCAAAUUGGCUGUGGCUAGACUGCC [C15U G27U] | 1.36 |
| UACAGAGCUCAACACAGCGUGGCAAAGUGGCUGUGGCUAGACUGCC [G1U G2A] | 0.38 |
| GGCAGAGCUCAACACAGCGUGGGAAAGAGGCUGUGGCUAGACUGCC [C23G U28A] | 0.7 |
| GGCAGAGCUCAACACAGCGUGGCAAAGAGGCUGUGGCUGGACUGCC [U28A A39G] | 0.05 |
| GGCAGAGAUCAACACAGCGUGGCAAAGUGGCUGUGUCUAGACUGCC [C8A G36U] | 0.22 |

| Variant | self-cleavage |
| --- | --- |
| GGCAGAGCUCAACACAUCGUGGCAAAGUGGCUGUGGCUAGACUGCC [G17U] | 0.23 |
| GGCAGAGCUCAACACAGCGUGGCAAAGUGGCUGUCGAUAGACUGCC [G35C C37A] | 0.08 |
| GGCAGAGCUCAACACAGCGUGGGAAAUUGGCUGUGGCUAGACUGCC [C23G G27U] | 1.17 |
| GGCAGAGCUCAACACCGCGUGGCAAAGUGGCUGUGGCUAGACCGCC [A16C U43C] | 0.08 |
| GGCAGAGCUCAACACAGCGUUGCAAAGUGGCUGAGGCUAGACUGCC [G21U U34A] | 0.12 |
| GGGAGAGCUCAACACAGCGUGGCAAAGUGGCUGUGGCUAGACCGCC [C3G U43C] | 0.14 |
| GGCAGAGCUCAACACAGCGUGGCAAUGUGGCUGUCGCUAGACUGCC [A26U G35C] | 0.09 |
| GGCAGAGCUCAACACAGCGUGGCAAAGUGGCUGUGGCAAAACUGCC [U38A G40A] | 0.17 |
| GGCAGACCUCAACACAGCGUGGCAAAGUGGCUGUGGCUAGACCGCC [G7C U43C] | 0.33 |
| GGCAGAGCUCAACACAGUGUGGCAAAGUGGCUGUGCCUAGACUGCC [C18U G36C] | 0.06 |
| GGCAGAGCUCUACGCAGCGUGGCAAAGUGGCUGUGGCUAGACUGCC [A11U A14G] | 0.03 |
| GGCAAAGCUCAACACAGCGUGGCAAAGGGGCUGUGGCUAGACUGCC [G5A U28G] | 0.2 |
| GGCAGAGCUCAACAUAGCGUGGCAAAGUGGCUGGGGCUAGACUGCC [C15U U34G] | 0.07 |
| GGGAGAGCUCAACACAGCGUGGGAAAGUGGCUGUGGCUAGACUGCC [C3G C23G] | 0.2 |
| GUCAGGGCUCAACACAGCGUGGCAAAGUGGCUGUGGCUAGACUGCC [G2U A6G] | 0.03 |
| GGCAGAGCUCAACACAGCGUGGCAACAUGGCUGUGGCUAGACUGCC [A26C G27A] | 0.57 |
| GGCAGAGGUCAACACAGCGUAGCAAAGUGGCUGUGGCUAGACUGCC [C8G G21A] | 0.32 |
| GGCAGAGCUCAAGACCGCGUGGCAAAGUGGCUGUGGCUAGACUGCC [C13G A16C] | 0.08 |
